The test system of one assay is LLC1 cells. The assay is described as follows: Tumor growth in LLC1 allograft mice. The assay is classed as in vivo. Conditions: vs PBS. Here is the method: Male C57BL/6 (6-8 weeks of age) mice were subcutaneously inoculated with LLC1 cells and randomly divided into two groups. Seven days after implantation, the mice were treated with GMI (5 mg/kg) via i.p. injections at intervals of 4 days. The control group received an equal volume of sterile PBS.
The mice will be weighed and randomly distributed across the different experimental groups (n=5). At day 0, approximately 2×10^5 lung cancer cells suspended in 100 μl serum free DMEM will be subcutaneously (s.c.) implanted into the right flank of all mice for easy observed detection. The mice were sacrificed on the 25th day and the tumors were then excised. […] Tumor size was measured (FIG. 1A) for each mouse using a set of digital calipers at 4 days, and the tumor volume was calculated by the formula L1×L2×H, where L1 is long diameter, L2 is the short diameter and H is the height of the tumor. Representative images of the tumors on the 25th day (FIG. 1B).
We further examined the effect of rLZ-8 on mice with LLC1-allograft in vivo. LLC1 cells were subcutaneously injected into male C57BL6 mice, and the tumor growth rate was assessed over 17 days.

For assay [1], the target named is T1, EGFR (Homo sapiens, UniProt P00533). Put plainly: Western blotting to detect expression of EGFR in CL1-5 and H226 cells. Set-up: endogenous in cells; host or cells: CL1-5 and H226 cells. Conditions: 5 μg/ml for CL1-5 and 10 μg/ml for H226, 0-12 h. It counts as cell-based. The method, then:
CL1-5 and H226 cells were incubated with rLZ-8 and GMI (5 μg/ml for CL1-5 and 10 μg/ml for H226) for 0-12 h followed by western blotting to detect expression of EGFR. […] The regulatory mechanisms of ligand-induced EGFR degradation dependent on endocytosis (Hicke L., FASEB J. 1997; 11:1215-26.). To investigate whether rLZ-8-induced EGFR degradation by inducing endocytosis, we performed depletion of clathrin heavy chain experiments in NSCLC cells. Using clathrin heavy chain shRNAs such as #2755 (sh-S1), #2757 (sh-S2) and #7981 (sh-S3), we confirm the efficacy of clathrin shRNAs, and we found (via Western blot analysis) that clathrin knockdown leads to a reduction in the overall protein levels of clathrin in CL1-5 and H226 cells (FIG. 4B). Next, we examined whether the rLZ-8-induced EGFR degradation dependent on clathrin-mediated endocytosis in NSCLC cells.
In general terms: Immunoblotting shows a protein as a band on a membrane.

In assay [2] the test system is EGFR. Put plainly: Western blot of EGFR level in H1975 cells. The assay is classed as cell-based, human. Here is the method: Knocking down of EGFR by EGFR siRNA activated activity of caspase3/7, resulting in apoptosis in gefitinib-resistant H1975 cells (Chen G et al., BMC Med. 2012; 10:28). To investigate the apoptosis, human H1975 cells were seed in 60-mm plat-dish and incubated with rLZ-8 (5 μg/ml) and GMI (10 μg/ml) for 48 hours and 72 hours, respectively.

The target in assay [3] is T1, EGFR. Put plainly: Immunoprecipitation assay with anti-EGFR and anti-his-tag antibody. It counts as binding. Conditions: A549 cells treated with rLZ-8. Also noted: After treatment of rLZ-8 in A549; endogenous in cells; host or cells: A549 cells. The method, then: (§1) Science the downregulation of EGFR by rLZ-8 and GMI may involve an intracellular pathway similar to that induced by EGF-mediated EGFR endocytosis and degradation, we hypothesized that rLZ-8 and GMI could interact with EGFR. The co-locolization of rLZ-8/GMI and EGFR were determined by fluorescence microscopy. […] To further examine the association of rLZ-8 and EGFR, immunoprecipitation assay was performed by anti-EGFR and anti-his-tag (for detecting rLZ-8) antibody.

Assay [4] has as its target T1, EGFR. The assay is described as follows: Co-localization with EGFR by fluorescence microscopy. Also noted: endogenous in cells; host or cells: CL1-5 and H226 cells. The assay is classed as cell-based. Conditions: H226 cells. The method, then:
as §1

B1: GMI: recombinant immunomodulatory protein derived from Ganoderma microsporum, manufactured by Mycomagic Biotechnology per U.S. Pat. No. 7,601,808 (protein)
chain: EAEAEFMSDTALIFTLAWNVKQLAFDYTPNWGRGRPSSFIDTVTFPTVLTDKAYTYRVVVSGKDLGVRPSYAVESDGSQKINFLEYNSGYGIADTNTIQVYVIDPDTGNNFIVAQWNYLEQKLISEEDLNSAVDHHHHHH
modifications: Ganoderma microsporum (GMI) or a recombinant thereof (reGMI)
Turning to B1, the tumor volume result in the assay with LLC1 cells (LLC1-bearing male C57BL/6 mice, GMI 5 mg/kg i.p. at intervals of 4 days from day 7, to 25th day) was “significantly decreases tumor volume”. For the same molecule, the EGFR protein levels result with EGFR [1] was “significantly suppressed the EGFR protein levels”. Moreover, the EGFR level result in the assay on EGFR [2] (GMI 10 μg/ml, 72 hours) was “induced downregulation of EGFR level”.

B2: rLZ-8: his-tagged recombinant fungal immunomodulatory protein LZ-8 from Ganoderma lucidum (SEQ ID NO:5) (protein, listed as Ganoderma lucidum)
chain: MSDTALIFRLAWDVKKLSFDYTPNWGRGNPNNFIDTVTTFPKVLTDKAYTYRVAVSGRNLGVKPSYAVESDGSQKVNFLEYNSGYGIADTNTIQVFVVDPDTNNDFIIAQWN
modifications: His tag
On to B2, for which the tumor volume result with LLC1 cells (LLC1-bearing male C57BL6 mice, rLZ-8 7.5 mg/kg, over 17 days) is reported as “significantly decreases tumor volume”. For the same molecule, the tumor weight entry in the assay with LLC1 cells (LLC1-bearing male C57BL6 mice, rLZ-8 7.5 mg/kg) is reported as “significantly decreases”. Moreover, in the assay with EGFR [1], the EGFR protein levels result was “significantly suppressed the EGFR protein levels”. Besides, the “association with EGFR (immunoprecipitation)” value with EGFR [3] was “present in the immunoprecipitants obtained by the anti-EGFR antibody”. For the same molecule, in the assay with EGFR [4], the “co-localization with EGFR” value was “mainly co-localized on the plasma membrane and formed the punctuate intracellular clusters in the cytoplasm”. Besides, the EGFR level entry with EGFR [2] (rLZ-8 5 μg/ml, 48 hours) was “induced downregulation of EGFR level”.

The record behind these values is patent US9827288B2, “Method for treating a refractory or relapsed lung cancer” (MYCOMAGIC BIOTECHNOLOGY CO., LTD., priority 2015, dated 2017).
